Test [1] has as its target carboxyl-terminal Myc-tagged Ptc-CTD (mouse Ptc with a 140-residue carboxyl-terminal deletion; amino acids 1-1,291) (mouse) (UniProt Q61115). The experiment in a line: competition with 0.9 nM 32P-Shh-N for binding to EcR-293 cells expressing Ptc-CTD, 4 C; KI from IC50.
Test [2] shares this target. The experiment in a line: Table 1 'Ptc-CTD affinity'; for wild type the dissociation constant (KL), as from the Scatchard analysis of 32P-Shh-N on EcR-293 cells expressing Ptc-CTD.
Test [3] shares this target. The experiment in a line: binding of 32P-Shh-N to EcR-293 cells expressing Ptc-CTD without competitor.
The target is the same in test [4]. Briefly: Scatchard analysis of the high-affinity component of 32P-Shh-N binding to EcR-293 cells expressing Ptc-CTD, 4 C.

Chain of carboxyl-terminal Myc-tagged Ptc-CTD (mouse Ptc with a 140-residue carboxyl-terminal deletion; amino acids 1-1,291) (mouse) (Q61115 1-1291, stated change not applied): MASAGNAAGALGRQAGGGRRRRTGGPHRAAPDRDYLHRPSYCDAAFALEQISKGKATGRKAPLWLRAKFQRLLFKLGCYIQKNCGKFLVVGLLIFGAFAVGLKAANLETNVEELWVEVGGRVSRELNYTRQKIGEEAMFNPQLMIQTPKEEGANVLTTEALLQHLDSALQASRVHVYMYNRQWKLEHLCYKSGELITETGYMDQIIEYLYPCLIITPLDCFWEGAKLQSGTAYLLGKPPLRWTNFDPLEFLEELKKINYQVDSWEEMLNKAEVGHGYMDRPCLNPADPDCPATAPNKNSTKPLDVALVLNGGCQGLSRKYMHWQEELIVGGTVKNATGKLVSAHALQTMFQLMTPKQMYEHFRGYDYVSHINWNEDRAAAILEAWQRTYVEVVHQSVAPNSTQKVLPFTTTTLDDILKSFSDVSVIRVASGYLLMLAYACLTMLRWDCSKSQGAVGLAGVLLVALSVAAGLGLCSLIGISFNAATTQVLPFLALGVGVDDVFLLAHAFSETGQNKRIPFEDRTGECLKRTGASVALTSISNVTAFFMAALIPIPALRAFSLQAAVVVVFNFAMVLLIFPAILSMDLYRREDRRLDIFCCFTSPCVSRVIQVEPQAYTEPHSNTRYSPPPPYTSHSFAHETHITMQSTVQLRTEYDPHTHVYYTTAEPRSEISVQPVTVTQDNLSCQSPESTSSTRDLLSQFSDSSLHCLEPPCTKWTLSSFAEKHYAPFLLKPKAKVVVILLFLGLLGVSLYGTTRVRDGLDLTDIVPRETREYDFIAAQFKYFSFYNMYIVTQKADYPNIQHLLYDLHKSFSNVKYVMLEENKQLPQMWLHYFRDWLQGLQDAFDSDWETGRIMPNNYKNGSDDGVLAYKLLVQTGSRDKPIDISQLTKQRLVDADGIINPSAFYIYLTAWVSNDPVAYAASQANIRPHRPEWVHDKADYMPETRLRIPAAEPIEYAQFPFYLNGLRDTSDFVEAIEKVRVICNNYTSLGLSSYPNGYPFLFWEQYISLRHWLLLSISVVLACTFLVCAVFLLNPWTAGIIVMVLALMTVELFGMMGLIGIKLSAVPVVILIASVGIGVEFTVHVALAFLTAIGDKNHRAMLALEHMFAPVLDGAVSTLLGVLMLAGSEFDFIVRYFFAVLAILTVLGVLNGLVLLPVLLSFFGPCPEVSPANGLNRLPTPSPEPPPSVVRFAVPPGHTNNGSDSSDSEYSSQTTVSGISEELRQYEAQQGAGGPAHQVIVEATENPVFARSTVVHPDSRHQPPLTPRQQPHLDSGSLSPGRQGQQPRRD

Broadly, the Ki is the dissociation constant of the complex between target and ligand, obtained from inhibition or displacement. The low end stands for a stronger hold on the target, the high end for a looser hold on the target. In test [1], “Shh-N SB altered protein (N51A, V52A, T56A, E168A) (from UniProt Q62226 25-198) (ligand)” registered a Ki of 0.48 nM.

In the case of “Shh-N SD altered protein (E90A, D132A, E138A) (from UniProt Q62226 25-198) (ligand)”, the Ki in test [1] worked out at 0.84 nM.

With “Shh-N SE protein (P42A, K46A) (from UniProt Q62226 25-198) (ligand)”, in test [1], the Ki is 2.4 nM.

In turn, “Shh-N H135A, E177A double mutant (EH) protein (from UniProt Q62226 25-198) (ligand)” came in with a Ki in test [1] of 1.7 nM.

For “Shh-N SG protein (S178A, K179A) (from UniProt Q62226 25-198) (ligand)”, the Ki in test [1] amounted to 4.3 nM. Against the preceding substance, the Ki is about 2.5-fold higher.

As for “Shh-N SF protein (R154A, S157A) (from UniProt Q62226 25-198) (ligand)”, the Ki in test [1] is 9.1 nM.

Consider “Shh-N E177A (EA) mutant protein (from UniProt Q62226 25-198) (ligand)”, for which the Ki in test [1] came to 1.7 nM.

Broadly, the Kd is the free concentration of one partner at which half of the binding sites on the other are occupied at equilibrium, for simple one-to-one binding. “wild-type Sonic hedgehog amino-terminal signaling domain protein (Shh-N), aa 25-198 (from UniProt Q62226 25-198) (ligand)” registered a Kd in test [2] of 0.48 nM.

The substance “Shh-N H135A (HA) mutant protein (from UniProt Q62226 25-198) (ligand)” yielded a Ki in test [1] of 0.63 nM. This lies in the sub-nanomolar range.

On to “Shh-N SC mutant protein (P42A, K46A, R154A, S157A, S178A, K179A) (from UniProt Q62226 25-198) (ligand)”, for which, in test [1], the Ki was over 36 nM.

Consider “Shh-N SA altered protein (K75A, E76A, Y81A, D105A, N116A, E189A, K195A) (from UniProt Q62226 25-198) (ligand)”, for which the Ki in test [1] was found to be 0.66 nM.

On to “32P-labeled Shh-N protein with a protein kinase A site tag (RRASV) at the carboxy terminus (from UniProt Q62226 25-198) (ligand)”, for which the percent of input bound in the absence of competitor in test [3] is 35 % of input. In addition, in test [4], the Kd was 0.48 nM.

The record behind these values is patent US6942988.
